Patent publication WO2004046187A2 (dated 2004)

T1: LexA DBD (made from the empty pBTM116 vector) (UniProt P0A7C2 1-202)
T1 construct: domain: LexA DBD; Control bait in yeast
T1 sequence: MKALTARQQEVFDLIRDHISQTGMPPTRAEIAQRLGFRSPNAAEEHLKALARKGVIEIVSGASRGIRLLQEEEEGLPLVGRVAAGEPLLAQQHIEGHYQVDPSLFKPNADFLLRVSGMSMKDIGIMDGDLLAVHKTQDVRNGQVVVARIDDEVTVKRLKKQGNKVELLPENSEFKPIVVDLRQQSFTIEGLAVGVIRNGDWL

B1: anti-RAS scFvI21, purified from bacterial periplasm (pHEN2) (scFv)
scFv: EVQLLESGGGLVQPGGSLRLSCAASGFTFSSYAMSWVRQAPGKGLEWVSTISYGGSNTNYADSVKARFTISRDNSKNTLYLQMNSLRAEDTAVYYCAKGNNAFDYWGQGTLVTVSSGGGGSGGGGSGGGGSTDIQMTQSPSSLSASVGDRVTITCRASQSISSYLNWYQQKPGKAPKLLIYNASALQSGVPSRFSGSGSGTDFTLTISSLQPEDFATYYCQQYTSTPRTFGQGTKVEIKR
notes: also called 121 (as the text prints it); ICAb 121; not shown: C-terminal His6-tag and myc-tag from pHEN2
B2: scFvI21-VP16 activation domain fusion (scFv)
scFv: B1 scFv
notes: In the mammalian vector the scFv stands on the N-terminal side of VP16; the same id is used for the yeast pVP16 prey; also called 121; ICAb 121

Tests used:
[1] = target: T2, Recombinant oncogenic HRAS (G12V; residues 1 - 166) loaded with GppNp (human, UniProt P01112 1-166); assay: SPR, BIAcore 2000; HRASG12V-GppNp immobilised on CM5 chip (about 1500 RU), purified scFv injected
T2 construct: range 1-166; this form was used as antigen throughout the in vitro assays; also called HRASG12V-GppNp; RASG12V-GppNp

[2] = target: T3, non-relevant antigen (β-galactosidase) bait in yeast (UniProt P00722 2-1024 = β-galactosidase); assay: yeast two-hybrid (His-independent growth, β-gal activation)
T3 construct: Used as non-relevant bait in the yeast two-hybrid test

[3] = target: T1, LexA DBD (made from the empty pBTM116 …); assay: as above

T3 sequence (P00722 2-1024 limits assumed): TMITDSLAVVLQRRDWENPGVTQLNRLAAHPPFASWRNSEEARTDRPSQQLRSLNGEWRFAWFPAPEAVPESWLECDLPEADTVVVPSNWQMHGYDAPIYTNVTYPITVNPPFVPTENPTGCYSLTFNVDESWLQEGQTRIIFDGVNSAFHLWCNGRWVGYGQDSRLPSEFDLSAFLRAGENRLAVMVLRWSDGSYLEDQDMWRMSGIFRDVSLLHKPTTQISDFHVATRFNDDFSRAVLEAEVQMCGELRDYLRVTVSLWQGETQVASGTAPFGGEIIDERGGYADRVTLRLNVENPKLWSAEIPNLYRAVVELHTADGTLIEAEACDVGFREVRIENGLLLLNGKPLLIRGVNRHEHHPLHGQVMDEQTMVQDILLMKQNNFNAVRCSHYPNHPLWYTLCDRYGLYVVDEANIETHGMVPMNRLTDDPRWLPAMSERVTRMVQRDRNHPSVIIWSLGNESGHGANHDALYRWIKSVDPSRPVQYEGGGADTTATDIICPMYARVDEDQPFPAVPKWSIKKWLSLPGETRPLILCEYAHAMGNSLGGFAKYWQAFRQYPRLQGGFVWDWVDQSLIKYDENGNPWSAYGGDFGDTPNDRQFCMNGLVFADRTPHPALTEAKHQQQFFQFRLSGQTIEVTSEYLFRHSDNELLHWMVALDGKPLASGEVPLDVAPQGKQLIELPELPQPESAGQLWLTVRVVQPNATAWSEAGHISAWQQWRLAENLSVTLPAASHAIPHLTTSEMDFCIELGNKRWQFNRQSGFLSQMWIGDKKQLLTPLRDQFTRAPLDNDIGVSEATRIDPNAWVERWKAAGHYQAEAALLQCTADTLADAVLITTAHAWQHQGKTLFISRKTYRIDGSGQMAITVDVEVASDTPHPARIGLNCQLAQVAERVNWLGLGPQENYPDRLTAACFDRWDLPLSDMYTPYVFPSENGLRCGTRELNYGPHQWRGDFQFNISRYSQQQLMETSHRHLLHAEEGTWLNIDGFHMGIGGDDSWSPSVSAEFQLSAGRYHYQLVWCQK

Binder | Kd [1] [nM] | binding result [2] | binding result [3]
B1 | 2160 | – | –
B2 | – | no binding | no binding
